In the assay the target is T1, PYK-NN (PYK2 aa 2-285) fused to the LexA DNA binding domain (UniProt P0A7C2 1-202; Q14289 2-285).
T1 construct: Yeast two-hybrid bait
The assay can be described thus: yeast two-hybrid with heterologous baits. How it is done: The yeast strain L40 containing the reporter genes HIS3 and β-gal under control of upstream LexA-binding site, was used as a host for the two-hybrid screening. […] Yeast strain that express the LexA-PYKN fusion protein was transfected with human brain cDNA library (Clontech #HL404AB) fused to GAL4 transcriptional activation domain. Transformants were plated on agar selection medium lacking Uracil (Ura-), Tryptophane (Trp-), Leucine (Leu-) and Histidine (His-). Resulting colonies were isolated and retested for growth on -Ura-Trp-Leu-His plates and for β-galactosidase activity. Plasmid DNA was purified from colonies that were His+, β-gal+ and used for retransformation of yeast strains expressing heterologous baits to determine the specificity of the interaction.
The yeast two-hybrid system was used to identify proteins that interact with the amino-terminal domain of PYK2. The N-terminal domain of PYK2 was fused to the LexA DNA binding domain and screened a human brain cDNA library. […] The specificity of the interaction was further determined by transformation of this clone into a yeast strain expressing heterologous baits. An interaction was detected in yeast strain expressing either the PYK-N terminal domain, or a shorter version of PYK-N that was missing 48 amino acids from its C-terminal end.

From patent US6576442 (SUGEN, dated 2003) come the findings set out here.

T1 sequence (P0A7C2 other isoform, or with tags, fused parts or gaps limits assumed): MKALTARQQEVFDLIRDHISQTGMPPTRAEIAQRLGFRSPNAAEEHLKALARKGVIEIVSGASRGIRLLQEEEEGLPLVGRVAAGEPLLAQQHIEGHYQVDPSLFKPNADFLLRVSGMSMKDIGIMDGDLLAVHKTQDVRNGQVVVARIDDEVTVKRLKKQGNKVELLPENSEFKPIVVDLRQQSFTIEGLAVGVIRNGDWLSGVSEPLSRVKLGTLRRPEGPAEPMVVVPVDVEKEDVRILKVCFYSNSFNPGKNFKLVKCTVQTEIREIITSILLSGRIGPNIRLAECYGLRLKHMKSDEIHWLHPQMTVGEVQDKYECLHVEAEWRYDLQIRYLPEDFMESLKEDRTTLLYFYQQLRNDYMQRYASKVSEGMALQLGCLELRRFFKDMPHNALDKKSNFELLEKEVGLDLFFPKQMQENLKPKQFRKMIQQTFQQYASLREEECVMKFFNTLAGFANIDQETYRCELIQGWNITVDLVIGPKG

B1: original two hybrid clone containing amino acids 627-975 of hrdgB1, fused to the GAL4 transcriptional activation domain (other, not shown: large carriers)
chain: VKLRNVTANHRANDVIAAEDGPQVLVGRFMYGPLDMVALTGEKVDILVMAEPSSGRWVHLDTEITNSSGRITYNVPRPRRLGVGVYPVKMVVRGDQTCAMSYLTVLPRGMECVVFSIDGSFAASVSIMGSDPKVRPGAVDVVRHWQDLGYMILYITGRPDMQKQRVVSWLSQHNFPQGMIFFSDGLVHDPLRQKAIFLRNLMQECFIKISAAYGSTKDISVYSVLGLPASQIFIVGRPTKKYQTQCQFLSEGYAAHLAVLEASHRSRPKKNNSRMILRKGSFGLHAQPEFLRKRNHLRRTMSVQQPDPPAANPKPERAQSQPESDKDHERPLPALSWARGPPKFESVP
notes: The printed end may count the stop codon; also called GAL10-rdgB1
For the molecule B1, the binding result was “no binding”.
